From the supplement of paper PMC9170038

Tested on: MS2 coat protein
Test: apparent KD of MS2 coat protein; designed switch direction (-1 OFF switch, 1 ON switch): 1; higher = weaker reporter binding
Outline: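 For each design, the apparent KD is the median over clusters of curves fitted to normalised cluster fluorescence. Clusters held RNA switches with common flanks, transcribed on Illumina chips by stalled E. coli RNA polymerase. These were titrated with SNAP-549-labelled MS2 coat protein, doubling from 0.7 or 1.5 nM to 3 µM, without input, with 200 uM small-molecule ligand, or with an oligonucleotide input.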

[1] = input ligand: microRNA oligo, concentration not stated
[2] = Eterna round: R95, input ligand: FMN 200 uM
[3] = Eterna round: R95, input ligand: microRNA oligo, concentration not stated
[4] = Eterna round: R95, input ligand: none

Row | Sequence | apparent KD of MS2 coat protein (input ligand: FMN 200 uM) | apparent KD of MS2 coat protein [1] | apparent KD of MS2 coat protein (input ligand: none) | apparent KD of MS2 coat protein [2] | apparent KD of MS2 coat protein [3] | apparent KD of MS2 coat protein [4]
1 | UGGUACAUGGGAGGAUAUGGAGUGAUGACAUGAGGAUCACCCAUGUUAAAUAUGCCGAGAGGCAACUAGAAGGCCCAUGUACCU [JL SSNG1 3.98] (Eterna round: R96, puzzle: Same State NG 2) | 22.3 nM | 298 nM | 418 nM | – | – | –
2 | GGUCCAGCCUGAGCUGGACUACAGCAUGUACAUGAGGAUCACCCAUGUCAUGUACAAGAAUGUUGUUUGUCUUAAAA [Sensorship 8 - Jieux - Sensor for hsa-mir-208a] (puzzle: Sensor for hsa-mir-208a) | – | – | – | 88.1 nM | 64.3 nM | 118 nM
3 | UAAAUAAAGUAAGGAUAUACAUGAGGAUCUCUCGUAGAAGGUACUAUACAUGAGGAUCACCCAUGUGCCGGUCCGUAGACUGGA [Mat - Same State NG 1 - JL mod - D8] (Eterna round: R96, puzzle: Same State NG 1) | 475 nM | 107 nM | 68.8 nM | – | – | –
4 | ACGUGAGGCGCAGGAUAUACAUGAGGAUCACCCGUAGAAGGGCGCACCCAUAACAUGAGGAUCACCCAUGUUGUCCAUGUCCAU [Same State NG 1 S5] (Eterna round: R96, puzzle: Same State NG 1) | 226 nM | 158 nM | 241 nM | – | – | –
5 | AGUCCAGCCUGAGCUGGACAAAAGCAUGUACAUGAGGAUCACCCAUGUUCAUGUACAAGCUUUUUGCUCGUCGGAAU [Mat - hsa-mir-208a - Mod of JL - 49] (Eterna round: R96, puzzle: Sensor for hsa-mir-208a) | 668 nM | 16.6 nM | 654 nM | – | – | –
6 | AAGUAACAUGAGGAUCACCCAUGUGAGGUGAGCGUAGGAUAUCGAGGAGGAAGGGUGGAGCGAGAAGGACGAGAGG [JR_SS1_Sub099] (puzzle: Same State 1) | – | – | – | 375 nM | 189 nM | 471 nM
7 | GGUUUAGUCGAUUGCCGUUGCACUCGAAAACAUGAGGAUCACCCAUGUUUGGGACAAGCUUUGCUCCUCGUCUUUCC [Sous] (puzzle: Sensor for hsa-mir-208a) | – | – | – | 240 nM | 67.1 nM | 453 nM
8 | AAAAUAAGCCCUUGCACAUGAGGAUCACCCAUGUUCGGUUCACAGGAUAUCUAGUCAAACGGGCUGGAGAAGGGUGGCAAGGAC [Xequusceus] (Eterna round: R96, puzzle: Same State NG 3) | 67.7 nM | 278 nM | 227 nM | – | – | –
9 | UGUUAACAUGAGGAUCACCCAUGUCAAAUGAAUCGAGGAUAUGGGAAGGAAGAAGAGAAACUAGAAGGCGAAGUUG [Altered State 1-4 - Jieux - Same State 1] (puzzle: Same State 1) | – | – | – | 835 nM | 56.8 nM | 216 nM
10 | UGGAUCUAGGCUUGCCUGGGUCCAUGCUGACAUGAGGAUCACCCAUGUGCAUCCUACAAGCUUUUUGCUUGUCGGCU (puzzle: Sensor for hsa-mir-208a) | – | – | – | 178 nM | 194 nM | 221 nM
11 | GCUACCAUUGAAGCCAACAUGAGGAUCACCCAUGUAUGUUGGCAGGAUAUCGAUUGCUUUGCGAUCGAGAAGGGCUAAGGUAGC [JL SSNG3 1.29] (Eterna round: R96, puzzle: Same State NG 3) | 120 nM | 153 nM | 171 nM | – | – | –
12 | AUACAUGAGGAUCACCCAUGUAAUUAAUUAAUUAAUAAGAUCAAGGAUAUCAGCUCGAUUAGAGCUGAGAAGGUGAUCACAUGU [SSNG3/21-D2] (Eterna round: R96, puzzle: Same State NG 3) | – | 272 nM | – | – | – | –
13 | GAGAGAGGGUGAGGAUAUUUAGUGAUAAUGAUAGGAGAAGGCACAGACAUGAGGAUCACCCAUGUGGGAAUAAUCCAGAGAGAG [Parity 9 - Jieux - Same State NG 1] (Eterna round: R96, puzzle: Same State NG 1) | 199 nM | 31.9 nM | 186 nM | – | – | –
14 | AUAAGUCCGAUGCUCGUCUCUCCGUACAAACAUGAGGAUCACCCAUGUGAUCGGGCAGUAGCCCGAUCAGUAUGGCC [Raedre] (puzzle: Sensor for hsa-mir-208a) | – | – | – | 51.5 nM | 23.9 nM | 56.4 nM
15 | AGCGAACAGUCCUCAAAGGCAACAUGAGGAUCACCCAUGUCAUAGGAUAUGCUAAAAGCUCAGUAGCAGAAGGAUGGAGGACUG [Edatusbe] (Eterna round: R96, puzzle: Same State NG 3) | 19.5 nM | 28.1 nM | 23.5 nM | – | – | –
16 | CAGCGCUGUCGAGAGGAUAUGCUGUGAUGGACAUGAGGAUCACCCAUGUUAGCGAUAGCAUUACUGUAGAAGGCUCUACAGCUGC [Soteed - 15] (puzzle: Same State 2) | – | – | – | – | 10.9 nM | –

Row | Sequence | apparent KD of MS2 coat protein (input ligand: FMN 200 uM) | apparent KD of MS2 coat protein [1] | apparent KD of MS2 coat protein (input ligand: none) | apparent KD of MS2 coat protein [2] | apparent KD of MS2 coat protein [3] | apparent KD of MS2 coat protein [4]
17 | GCCGCGUUUCGCGCCUACAUGAGGAUCACCCAUGUUUGUGGGCAGGAUAUCGUCCGCUCUGCGGGCGAGAAGGGCUGUUGUGGG [salish99_SSNG3_R04_024] (Eterna round: R96, puzzle: Same State NG 3) | 231 nM | 159 nM | 215 nM | – | – | –
18 | CUUUUUCCUUUUACAUGAGGAUCACCCAUGUUUUCAUAUUGAGAGGAUAUCGUAUUUGGAAUUUUCGAGAAGGCUCAUUUGUAU [JR_SSNG3_Sub075] (Eterna round: R96, puzzle: Same State NG 3) | 39.4 nM | 25.5 nM | 28.9 nM | – | – | –
19 | AGUCCAGCCUGAGCUGGACAAAAGCAUGUACAUGAGGAUCACCCAUGUUCAUGUACAAGCUUUUUGCUCGUCUGAAU [Mat - hsa-mir-208a - Mod of JL - 47] (puzzle: Sensor for hsa-mir-208a) | – | – | – | 709 nM | 19.9 nM | 874 nM
20 | GUAGCAUACCGAGGAUAUUCAUAUUAACAUGAGGAUCACCCAUGUUUAGGUCGAUUACGACCUUGGGAGAAGGCGGAAUGCUAC [Xeonanis - 20 Mod33] (Eterna round: R96, puzzle: Same State NG 2) | 12.3 nM | 15.4 nM | 25.5 nM | – | – | –
21 | UGGUACAUGGGAGGAUAUCUCAUGGAGACAUGAGGAUCACCCAUGUAGAUGGCCGGUAACCGGAGAGAGAAGGCCCAUGUACCU [JL SSNG1 3.67] (Eterna round: R96, puzzle: Same State NG 2) | 79.6 nM | 152 nM | 198 nM | – | – | –
22 | AACAUGAGGAUCACCCAUGUAGAAAAGUGAGGCAGCUCAGGGAAGGAUAUGGUUGACACCCUCGACCAGAAGGUCCAAAAUAAA [Argeatonra] (Eterna round: R96, puzzle: Same State NG 3) | 31.2 nM | 54.2 nM | 63.6 nM | – | – | –
23 | CAGUAUCGCGGAGGAUAUGGGCUGAGACCGGAGCAACUCUGGUCAACAUGAGGAUCACCCAUGUCCCAGAAGGCCGCGAUGCUG [Enquoninso] (Eterna round: R96, puzzle: Same State NG 2) | 18.4 nM | 62.2 nM | 96.1 nM | – | – | –
24 | UUUAGUUGCGGGCAGGAUAUGUAUUAAAAUACAUGAGGAUCACCCAUGUGAGGUCAUAAAGACCUACAGAAGGGCCAAUCGCGAC [Laonerce - 16] (puzzle: Same State 2) | – | – | – | 16.5 nM | 64.8 nM | 66.2 nM
25 | GAGAGACGAUUAGGAUAUCCGGUGAUAAUGAUAGGAGAAGGAAUUGACAUGAGGAUCACCCAUGUGGGAAUAAUCCAGAGAGAG [Parity 24 - Jieux - Same State NG 1] (Eterna round: R96, puzzle: Same State NG 1) | 86.5 nM | 66.5 nM | 89.7 nM | – | – | –
26 | AGUCCAGAAUAAACUGGACAAAGACAUGUACAUGAGGAUCACCCAUGUCAUGUACAAGUUUUUUGCUCGUCUUAUAA (puzzle: Sensor for hsa-mir-208a) | – | – | – | 39.9 nM | 10.4 nM | 37.2 nM
27 | UGUUGUAAUACAGGAUAUAUAUUAUUUUUAUUUAUAGAAGGGUAAUCACAUGAGGAUCACCCAUGUAUAUACGAGGAAGAAGAG [JMF's solution 3] (Eterna round: R96, puzzle: Same State NG 1) | – | 139 nM | – | – | – | –
28 | UAGGGACAUGAGGAUCACCCAUGUGCCUCAUAUGGAGAAACUCAGGAUAUGCUGAGGAUCACCCGGCAGAAGGGAGAUUUGAGG (Eterna round: R96, puzzle: Same State NG 3) | 42.3 nM | 26.3 nM | 36.4 nM | – | – | –
29 | UUAUCUCAGACAUGAGGAUCACCCAUGUGGUUAUGACUUAGACAGGAUAUAGUAGUAUCGAAAUACUAGAAGGGUCAUUUUAUU [JR_SSNG3_Sub021] (Eterna round: R96, puzzle: Same State NG 3) | 73.4 nM | 97.5 nM | 143 nM | – | – | –
30 | AUUAUUAAUGCAGGAUAUGAUUAACAUGAGGAUCACCCAUGUGGUGUUGUGAGUAAGGAGAGUGAUCAGAAGGGCAUUUUUUUG [JMF's solution 19] (Eterna round: R96, puzzle: Same State NG 2) | 420 nM | 423 nM | 452 nM | – | – | –
31 | AUCAAAACAAGUUGCAGUGUUCGUCUUUCACAUGAGGAUCACCCAUGUAAUAGCCCAGUGGAAGCGCUCAGGCCACC [Usbi] (puzzle: Sensor for hsa-mir-208a) | – | – | – | 225 nM | 57.7 nM | 210 nM
